Experimental data reported in patent US7431923.

Target: T1, GST-EC2 (GST fusion of extracellular loop 2 of human CD63, amino acids 108-202) (human, UniProt P08962 108-202)
T1 construct: range 108-202; Expressed in E. coli BL-21; on blots as total bacterial lysate, in BIAcore captured by immobilised anti-GST antibody; Vector-encoded residues between GST and the loop are not described; also called EC2 fusion polypeptide; not shown: glutathione S-transferase as encoded by the bacterial expression vector PGEX-4T-2 (Amersham Biosciences)
T1 sequence (looked up): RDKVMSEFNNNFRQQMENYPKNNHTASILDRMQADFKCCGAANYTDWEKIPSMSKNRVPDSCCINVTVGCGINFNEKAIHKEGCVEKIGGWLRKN
Experiment: BIAcore, steady state; GST-EC2 captured on immobilised anti-GST antibody, antibody injected at 12.5 to 200 nM; KD as reciprocal of KA

Kd: 135 nM
B1: 7BD-33-11A monoclonal antibody (hybridoma ATCC PTA-4890) (antibody, V domains shown)
VH: EVQLQQSGPGLVKPGASVKMSCKASGYTFTSYVMHWVKQMPGQGLEWIGYITPYNDGTKYNEKFKGKATLTSDKSSSTAYMDLSSLTSEDSAVYYCVYGSRYDWYFDVWGAGTTVTVSS
VL: NIMMTQSPSSLAVSAGEKVTMSCKSSQSVLYSSNQKNYLAWYQQKPGQSPKLLIYWASTRESGVPDRFTGSGSGTDFTLTISSVQAEDLAVYYCHQYFSSYTFGGGTKLEIK
